Patent US20120114630

Molecular target: recombinant staphylokinase SAK-SY162

B1: microplasminogen variant Lys137Met (K137M) (protein)
chain: APSFDCGKPQVEPKKCPGRVVGGCVAHPHSWPWQVSLRTRFGMHFCGGTLISPEWVLTAAHCLEKSPRPSSYKVILGAHQEVNLEPHVQEIEVSRLFLEPTRKDIALLKLSSPAVITDKVIPACLPSPNYVVADRTECFITGWGETQGTFGAGLLMEAQLPVIENKVCNRYEFLNGRVQSTELCAGHLAGGTDSCQGDSGGPLVCFEKDKYILQGVTSWGLGCARPNKPGVYVRVSRFVTWIEGVMRNN
  conversion of inactive microplasminogen into active microplasmin, HPLC profile 10 min after addition of staphylokinase: ~85%
